Where a chain is given by its changes, count along the chain named.
Tests used:
[1] = target: T1, soluble tau (control tau; recombinant 2N4R tau, SEQ ID NO:31) (human, UniProt P10636 2-758); assay: ELISA on coated soluble tau, anti-human Fc:HRP, 5-fold dilutions from 5 ug/ml
T1 construct: also called Sol-tau; recombinant WT tau
Experimental: Colonies from this electroporation were picked for the ELISA screen and assessment of Fab expression. Briefly, Maxisorp 96 well plates were coated with soluble Tau protein. Fab colonies were grown in 2×YT media and Fab expression was induced with IPTG. ELISA plates were washed and Fab secreted into the E. coli media was added to each ELISA plate. Plates were washed and Anti-Fab′2:HRP (Jackson ImmunoResearch) was added to the ELISA plates. Plates were washed and chemiluminescent detection reagent was added and plates were read on a Perkin Elmer EnVision plate reader for luminescence.
Positive clones were sequenced in both VH and VL. Unique sequences were cloned into IgG gene expression constructs for expression and purification as full length IgG1 molecules. IgG constructs were transfected into CHO-Expi cells and IgG protein was purified using MabSelectSure resin. Antibodies were then tested in an ELISA for binding to soluble Tau, using anti-human Fc:HRP (Jackson ImmunoResearch), to detect IgG binding.
The ELISA was done as described for Fabs except that antibodies were tested at five 5-fold dilutions starting at 5 μg/mL in PGS and anti-human Fc:HRP (Jackson ImmunoResearch) was used to detect IgG binding.

[2] = target: T1, soluble tau (control tau; recombinant …); assay: direct ELISA on 2N4R tau coated at 1 ng/mL, O.D. 450 nm
Experimental: (§1) Binding to recombinant WT (2N4R; SEQ ID NO:31) tau was analyzed by ELISA where full-length Tau protein (1 ng/mL or 10 ng/mL) was directly coated to the plate and incubated with different concentrations of either recombinantly- or hybridoma produced PT82 antibody (FIG. 2). After incubation with antibodies, plates were again washed and 50 μL per well of HRPO labelled anti-mouse antibody (GE Healthcare) (diluted 1:10000 in blocking buffer) was added. After another washing step detection was performed with “One step” TMB (Thermo Scientific) according to the manufacturers' instructions. Plates were analysed in EnVision® 2102 Multilabel Reader (Perkin Elmer, Waltham, Mass., USA). Binding curves were generated using GraphPad Prism7.0 software. […] No substantial difference has been observed between binding profiles of recombinant and hybridoma produced antibodies.

[3] = target: T2, PHF-tau (paired helical filament-tau), partially purified from postmortem cortex of an Alzheimer patient (human, UniProt P10636-8 2-441, limits assumed, hyperphosphorylated (sites not given)); assay: SPR (ProteOn XPR36 or Biacore T200)
T2 construct: This is an aggregated, hyperphosphorylated brain-derived preparation, not a single defined chain

[4] = target: T1, soluble tau (control tau; recombinant …); assay: direct ELISA on 2N4R tau coated at 10 ng/mL, O.D. 450 nm
Experimental: as §1

[5] = target: T3, 119 138 …; assay: pepscan-based ELISA on the array of linear 20-mer Tau441 peptides
T3 construct: Linear 20-mer made on the solid support of the pepscan array
T3 peptide: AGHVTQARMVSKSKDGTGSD
Experimental: (§2) The binding of antibodies (recombinantly expressed as IgG2a) to each of the synthesized peptides was tested in a pepscan-based ELISA. The peptide arrays were incubated with primary antibody solution (overnight at 4° C.). After washing, the peptide arrays were incubated with a 1/1000 dilution of an appropriate antibody peroxidase conjugate (SBA) for one hour at 25° C. After washing, the peroxidase substrate 2,2′-azino-di-3-ethylbenzthiazoline sulfonate (ABTS) and 20 μl/ml of 3 percent H2O2 were added. After one hour, the color development was measured. The color development was quantified with a charge coupled device (CCD)—camera and an image processing system.

[6] = target: T4, 117 136 …; assay: as above
T4 construct: Linear 20-mer made on the solid support of the pepscan array; also called Tau441 peptide 117-136
T4 peptide: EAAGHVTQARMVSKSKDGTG
Experimental: as §2

[7] = target: T5, 105 124 …; assay: as above
T5 construct: Linear 20-mer made on the solid support of the pepscan array; also called Tau441 peptide 105-124
T5 peptide: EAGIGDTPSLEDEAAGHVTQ
Experimental: as §2

[8] = target: T6, 103 122 …; assay: as above
T6 construct: Linear 20-mer made on the solid support of the pepscan array
T6 peptide: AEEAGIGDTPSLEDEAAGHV
Experimental: as §2

[9] = target: T7, 109 128 …; assay: as above
T7 construct: Linear 20-mer made on the solid support of the pepscan array; also called Tau441 peptide 109-128
T7 peptide: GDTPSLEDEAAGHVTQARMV
Experimental: as §2

[10] = target: T8, 107 126 …; assay: as above
T8 construct: Linear 20-mer made on the solid support of the pepscan array; also called Tau441 peptide 107-126
T8 peptide: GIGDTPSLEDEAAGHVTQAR
Experimental: as §2

[11] = target: T9, 111 130 …; assay: as above
T9 construct: Linear 20-mer made on the solid support of the pepscan array; also called Tau441 peptide 111-130
T9 peptide: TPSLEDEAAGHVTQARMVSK
Experimental: as §2

[12] = target: T10, 121 140 …; assay: as above
T10 construct: Linear 20-mer made on the solid support of the pepscan array; also called Tau441 peptide 121-140
T10 peptide: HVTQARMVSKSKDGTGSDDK
Experimental: as §2

[13] = target: T11, 115 134 …; assay: as above
T11 construct: Linear 20-mer made on the solid support of the pepscan array; also called Tau441 peptide 115-134
T11 peptide: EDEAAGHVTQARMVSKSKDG
Experimental: as §2

[14] = target: T12, 113 132 …; assay: as above
T12 construct: Linear 20-mer made on the solid support of the pepscan array; also called Tau441 peptide 113-132
T12 peptide: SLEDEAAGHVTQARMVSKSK
Experimental: as §2

[15] = target: T1, soluble tau (control tau; recombinant …); assay: SPR (ProteOn XPR36 or Biacore T200); central value of the cell

T1 sequence (P10636 other isoform, or with tags, fused parts or gaps limits assumed): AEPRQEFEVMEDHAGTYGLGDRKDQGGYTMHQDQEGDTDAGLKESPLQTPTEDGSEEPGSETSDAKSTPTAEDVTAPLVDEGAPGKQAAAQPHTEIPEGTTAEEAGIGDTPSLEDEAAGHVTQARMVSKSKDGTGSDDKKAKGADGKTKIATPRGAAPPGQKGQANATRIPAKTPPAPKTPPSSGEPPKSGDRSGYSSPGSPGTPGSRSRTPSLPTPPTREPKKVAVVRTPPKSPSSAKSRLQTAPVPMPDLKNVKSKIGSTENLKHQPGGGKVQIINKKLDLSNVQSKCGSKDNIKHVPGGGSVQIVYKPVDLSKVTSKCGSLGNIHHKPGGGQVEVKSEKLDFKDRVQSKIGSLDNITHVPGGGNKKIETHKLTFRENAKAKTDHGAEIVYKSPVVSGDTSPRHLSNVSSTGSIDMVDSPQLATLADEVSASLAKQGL
T2 sequence (P10636 other isoform, or with tags, fused parts or gaps limits assumed): as above

B1: PT1B779 (humanized PT82, full length IgG1) (antibody, V domains shown)
VH: EVQLVESGGGLVQPGGSLRLSCAASGFTFSNYWMNWIRQAPGKGLEWVGQIRLQDDNYATRYAASVKGRFTISRDDSKNSVYLQMNSLKTEDTAVYYCTGGTTYWGQGTLVTVSS
VL: DIQMTQSPSFLSASVGDRVTITCKASQNVGTKVAWYQQKPGKAPKLLIYSASIRYTGVPSRFSGSGSGTEFTLTISSMQPEDFATYYCQQFSSYPYTFGQGTKLEIK
B1: binds [1].

B2: PT1B781 (humanized PT82, full length IgG1) (antibody, V domains shown)
VH: B1 VH with D55R
VL: B1 VL
B2: binds [1].

B3: PT1B780 (humanized PT82, full length IgG1) (antibody, V domains shown)
VH: B1 VH with D55S, V81L
VL: B1 VL with M78L
B3: binds [1].

B4: PT1B782 (humanized PT82, full length IgG1) (antibody, V domains shown)
VH: B1 VH with D55Y
VL: B1 VL with M4L
B4: binds [1].

B5: PT1B778 (humanized PT82, full length IgG1) (antibody, V domains shown)
VH: B1 VH with D55S, A59V
VL: B1 VL with K32R
B5: binds [1].

B6: PT82 mAb, recombinantly expressed (mouse IgG2a/kappa) (antibody, V domains shown)
VH: EVKLEESGGGLVQPGGSMKLSCVASGFTFSNYWMNWIRQSPEKGLEWVAQIRLQSDNYATRYAESVKGRFTISRDESKTSVYLQMNNLRTEDTGIYYCTGGTTYWGQGTLVTVSA
VL: DIVMTQSQKFMSTSVGDRVSITCKASQNVGTAVAWYQQKPGQSPKLLIYSASIRYTGVPDRFTGSGSGTDFTLTINYMQSEDLADYFCQQFSSYPYTFGGGTKLEIK
notes: also called recombinant PT82; murine PT82
For B6, the “EC50 (read off the curve)” value [2] was about 0.05 µg/mL, the Kd [3] was 2.85 nM and the “EC50 (read off the curve)” value [4] was about 0.01 µg/mL. The “pepscan ELISA signal (PT82)” value [5] was 2910, the “pepscan ELISA signal (PT82)” value [6] was 2920 and the “pepscan ELISA signal (PT82)” value [7] was 2900. For the same binder, the “pepscan ELISA signal (PT82)” value [8] was 68, the “pepscan ELISA signal (PT82)” value [9] was 2920 and the “pepscan ELISA signal (PT82)” value [10] was 2920. The “pepscan ELISA signal (PT82)” value [11] was 2930, the “pepscan ELISA signal (PT82)” value [12] was 68 and the “pepscan ELISA signal (PT82)” value [13] was 2920. The “pepscan ELISA signal (PT82)” value [14] was 2930.

B7: PT82 from hybridoma supernatant (hybridoma-produced mouse monoclonal antibody) (antibody, V domains shown)
VH: B6 VH
VL: B6 VL
notes: This is the native hybridoma antibody; also called hybridoma produced PT82
With B7 the “EC50 (read off the curve)” value [2] was about 0.02 µg/mL and the “EC50 (read off the curve)” value [4] was about 0.004 µg/mL.

B8: PT82 Fab (chimeric: mouse variable domains on human IgG1/kappa constant domains, His tag at the C-terminus of the heavy chain) (Fab, V domains shown)
VH: B6 VH
VL: B6 VL
notes: The Fab has mouse variable domains fused to human IgG1/kappa constant domains, with a His tag at the C-terminus of the heavy chain; also called Fab fragment of PT82
B8 showed a Kd [3] of 5.01 nM and a Kd [15] of 1.84 nM.
